Laboratory results published in patent US20110311551A1 (INSERM, published 2011).

What was measured:
human serum albumin = molecular target: T1, human serum albumin (human, UniProt P02768 25-609); experiment: EIA
T1 construct: also called HSA

[1] = molecular target: T2, E2 octapeptide 479-486, GPDQRPYC (Hepatitis C virus); experiment: octapeptides
T2 peptide: GPDQRPYC

[2] = molecular target: T3, E2 octapeptide 487-494, WHYPPKPC (Hepatitis C virus); experiment: octapeptides
T3 peptide: WHYPPKPC

[3] = molecular target: T4, E1 region 297-306, RHWTTQGCNC (Hepatitis C virus); experiment: overlapping octapeptides
T4 construct: Region found with overlapping octapeptides; also called E1 297-306
T4 peptide: RHWTTQGCNC

[4] = molecular target: T5, E2 region 613-621, YRLWHYPCT (Hepatitis C virus); experiment: overlapping octapeptides
T5 construct: Region found with overlapping octapeptides; also called E2 613-621
T5 peptide: YRLWHYPCT

[5] = molecular target: T6, E2 region 480-494, PDQRPYCWHYPPKPC (Hepatitis C virus); experiment: ELISA with pentadecapeptides
T6 construct: also called E2 480-494; regions 480-494 of E2 as pentadecapeptide
T6 peptide: PDQRPYCWHYPPKPC

[6] = molecular target: T7, peptides corresponding to the 347-356 E1 region (Hepatitis C virus); experiment: overlapping synthetic pentadecapeptides on a membrane, colorimetric immunoassay
T7 construct: 347-356 was counted over to 5-14 on that entry; Made as overlapping pentadecapeptides on a membrane; also called E1 347-356

[7] = molecular target: T8, peptides corresponding to the E2 region 612-626 (Hepatitis C virus); experiment: as above
T8 construct: 612-626 was counted over to 3-17 on that entry; also called E2 612-626
T8 peptide: PYRLWHYPCTINYTI

[8] = molecular target: T9, peptides corresponding to the E2 region 686-697 (Hepatitis C virus); experiment: as above
T9 construct: 686-697 was counted over to 2-13 on that entry; also called E2 686-697
T9 peptide: STGLIHLHQNIV

Measured: binding result

T1 sequence (P02768 25-609 limits assumed): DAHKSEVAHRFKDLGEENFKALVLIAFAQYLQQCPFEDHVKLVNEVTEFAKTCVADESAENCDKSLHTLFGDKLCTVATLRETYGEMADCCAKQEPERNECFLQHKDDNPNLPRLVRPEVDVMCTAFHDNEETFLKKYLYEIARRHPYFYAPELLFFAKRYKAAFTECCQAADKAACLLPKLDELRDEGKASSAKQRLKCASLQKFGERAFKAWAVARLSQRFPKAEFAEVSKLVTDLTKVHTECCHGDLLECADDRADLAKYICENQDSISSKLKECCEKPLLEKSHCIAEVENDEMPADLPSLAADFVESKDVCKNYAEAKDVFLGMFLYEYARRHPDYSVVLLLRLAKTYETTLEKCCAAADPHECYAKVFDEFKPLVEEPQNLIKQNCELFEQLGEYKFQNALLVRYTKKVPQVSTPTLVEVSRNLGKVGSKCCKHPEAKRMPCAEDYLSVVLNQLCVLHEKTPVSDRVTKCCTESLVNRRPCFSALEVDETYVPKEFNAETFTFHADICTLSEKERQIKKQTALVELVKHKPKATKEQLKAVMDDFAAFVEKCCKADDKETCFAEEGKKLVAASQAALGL

B1: monoclonal antibody D32.10 (antibody, V domains shown)
VH: EVQLQQSGAELVKPGASVKLSCTPSGFNIKDTYIHWVKQRPEQGLEWIGMINPANGNSNYDPKFQDKATITADTSSNTAYLQLSSLTSEDTAVYYCAEITTDFDVWGAGTTVTVSS
VL: NIVLTQSPPSLAVSLGQRATISCRASESVDSYGNSFLHWYQQKSGQPPKLLIYLASNLESGVPARFSGSGSRTDFTLTIDPLEADDAATYYCQQNNEAPFTFGSGTKLEIKR
notes: also called mAb D32.10; MAb D32.10
no binding: human serum albumin | [6] | [8]
binds: all other assays above
